From PMC10374969, “SVCT2/SLC23A2 is a sodium-dependent urate transporter: functional properties and practical application” (The Journal of Biological Chemistry, 2023)

What was measured:
[1] = test system: T1, O=c1[nH]c(=O)c2[nH]c(=O)[nH]c2[nH]1; assay: cells, lysate or membranes; assay type: cell-based, Homo sapiens; details: pH 10, Na+ Krebs-Ringer buffer, 37 °C, 5 min, 0-3 mM urate (not saturated), labelled compound
T1 construct: full-length wild type, 650 aa, C-terminal EGFP tag (pEGFP-N1), transiently expressed in HEK293 cells

[2] = test system: T2, O=c1[nH]c(=O)c2[nH]c(=O)[nH]c2[nH]1; assay: cells, lysate or membranes; assay type: cell-based, Mus musculus; details: pH 10, Na+ Krebs-Ringer buffer, 37 °C, 5 min, 0-3 mM urate (not saturated), labelled compound
T2 construct: full-length, 648 aa, C-terminal EGFP tag (pEGFP-N1), transiently expressed in HEK293 cells

Row | Substance | Km [1] [mM] | Km [2] [mM]
1 | human SVCT2 (SVCT2/SLC23A2) (Homo sapiens) | 3.86 | –
2 | mouse Svct2 (Svct2/Slc23a2) (Mus musculus) | – | 3.16
